This is an account of results in PMC10960022, “An ARF gene mutation creates flint kernel architecture in dent maize”.

Data set [1] has as its target T1, ARFTF17 (Zea mays (B73?)) (UniProt D9HNU4).
T1 sequence: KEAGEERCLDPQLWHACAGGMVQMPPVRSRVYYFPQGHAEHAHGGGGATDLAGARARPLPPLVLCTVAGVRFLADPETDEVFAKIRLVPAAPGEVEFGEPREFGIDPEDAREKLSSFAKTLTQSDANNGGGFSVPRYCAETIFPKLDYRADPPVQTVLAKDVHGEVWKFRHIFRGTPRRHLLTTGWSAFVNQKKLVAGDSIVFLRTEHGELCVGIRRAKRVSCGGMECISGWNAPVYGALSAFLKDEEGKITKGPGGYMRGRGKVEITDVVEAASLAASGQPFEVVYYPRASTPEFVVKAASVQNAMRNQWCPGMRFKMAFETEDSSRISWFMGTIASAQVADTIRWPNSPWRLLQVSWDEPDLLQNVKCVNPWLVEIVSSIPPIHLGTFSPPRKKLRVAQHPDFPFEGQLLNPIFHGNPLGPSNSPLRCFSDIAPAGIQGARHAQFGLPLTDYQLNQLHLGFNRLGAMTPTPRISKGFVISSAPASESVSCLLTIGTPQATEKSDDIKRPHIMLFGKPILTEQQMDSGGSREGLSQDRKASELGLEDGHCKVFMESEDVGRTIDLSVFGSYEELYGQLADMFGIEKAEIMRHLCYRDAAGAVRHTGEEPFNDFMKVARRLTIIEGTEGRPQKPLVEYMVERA
Briefly: EMSA. The settings on record: 20 mM Tris-HCl pH 7.9, 40 mM KCl, 2 mM MgCl2, 0.2 mM DTT, 5% glycerol, 0.04 mg/mL BSA, 1 ug salmon sperm DNA in 20 uL, room temperature 30 min; 0.05 pmol …. On the technique in general: A gel shift assay detects complexes by their altered migration in electrophoresis.

For another data set, the target named is T2, ARFTF17 (Zea mays, UniProt D9HNU4 2-644).
T2 sequence: T1 sequence
Briefly: EMSA; 20 mM Tris-HCl pH 7.9, 40 mM KCl, 2 mM MgCl2, 0.2 mM DTT, 5% glycerol, 0.04 mg/mL BSA, 1 ug salmon sperm DNA in 20 uL, room temperature 30 min; 0.05 pmol probe, 100 ng protein; native 4% PAGE at 4 C. The settings on record: protein: recombinant; tags: His (pET30a); chain copies: 2; blunt.

In the case of “AATGCACAATCAAATAAATACTCAACATGATGCATATTTCTATTTATATATTTTTATAGTAATTGTTTAATCCTTTTGGTTAAATAACATGCTTCGAAATATGCCATACAACAATTTTCAGTTTTGAAGAAAT (double strand) [PIN1-P]”, the binding entry in data set [1] was “no binding”.

B1: P3(2x) (dsDNA)
DNA 1: AAGGGAGACAACTTGTCTCCCAAAGGGAGACAACTTGTCTCCCAAAGGGAGACAACTTGTCTCCCA
DNA 2: TGGGAGACAAGTTGTCTCCCTTTGGGAGACAAGTTGTCTCCCTTTGGGAGACAAGTTGTCTCCCTT
Turning to B1, in the data set with ARFTF17, the binding result is reported as “no binding”.
